Results: patent publication US20240018189A1 (PROTAGONIST THERAPEUTICS, published 2024)
Each block holds one binder with its values, some of them ahead of it. Starred links: 1 amine or outer side, 2 acyl side, 3 side chain; linkers in the order of their positions; H or OH if unused. Positions of bridges follow the written chain, without caps; N, C: chain ends. Non-standard residues stand in square brackets, D forms with d. Groups on a side chain read outwards from the residue. *: point of attachment. PEG12 = NCCOCCOCCOCCOCCOCCOCCOCCOCCOCCOCCOCCOCCC(=O)O; Phe(4-COOH) = N[C@@H](Cc1ccc(C(=O)O)cc1)C(=O)O; Phe(4-tBu) = CC(C)(C)c1ccc(C[C@H](N)C(=O)O)cc1; Pro(4Amino) = proline with a 4-amino group; Phe(4-CN) = N#Cc1ccc(C[C@H](N)C(=O)O)cc1; Dip = N[C@H](C(=O)O)C(c1ccccc1)c1ccccc1; γGlu = O=C(O)[C@H](CCC(=O)[*:2])N[*:1]; 2Nal = N[C@@H](Cc1ccc2ccccc2c1)C(=O)O; AEF = NCCOc1ccc(C[C@H](N)C(=O)O)cc1; Arg(Dimethyl) = dimethyl-arginine; Palmitoyl = CCCCCCCCCCCCCCCC(=O)*; αMeF = C[C@](N)(Cc1ccccc1)C(=O)O; β3hF = N[C@H](CC(=O)O)Cc1ccccc1; Cit = NC(=O)NCCC[C@H](N)C(=O)O; Spiral_Pip = not defined here; Isovaleryl = CC(C)CC(=O)*; αMeC = C[C@](N)(CS)C(=O)O; Npc = nipecotic acid; Ahx = NCCCCCC(=O)O

Molecular target: T1, human ferroportin (SLC40A1) fused in frame with GFP (human) (UniProt Q9NP59)
T1 sequence (looked up): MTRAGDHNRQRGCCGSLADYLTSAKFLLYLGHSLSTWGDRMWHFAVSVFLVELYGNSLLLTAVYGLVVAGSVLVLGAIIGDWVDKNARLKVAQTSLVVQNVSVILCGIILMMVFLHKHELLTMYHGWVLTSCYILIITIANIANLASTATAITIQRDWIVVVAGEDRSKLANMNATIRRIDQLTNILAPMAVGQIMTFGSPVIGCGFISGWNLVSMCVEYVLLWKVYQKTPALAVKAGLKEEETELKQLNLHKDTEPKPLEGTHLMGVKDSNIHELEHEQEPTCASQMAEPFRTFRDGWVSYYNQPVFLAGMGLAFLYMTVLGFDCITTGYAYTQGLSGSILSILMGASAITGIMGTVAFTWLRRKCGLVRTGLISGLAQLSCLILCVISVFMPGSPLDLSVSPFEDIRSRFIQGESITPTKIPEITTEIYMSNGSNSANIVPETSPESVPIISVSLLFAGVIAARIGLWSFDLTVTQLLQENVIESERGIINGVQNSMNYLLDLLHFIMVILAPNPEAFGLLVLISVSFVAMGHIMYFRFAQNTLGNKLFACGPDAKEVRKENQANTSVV
Assay: cell-based or functional assay

B2: Ref. Cmpd. 1 (peptide)
peptide: Isovaleryl-DTHFPCIKFKPRSKGCK-NH2
modifications: disulfide 6-16 (inferred); not fully specified (residue 10); also: K10: Lys[PEG11-Palm] (Lys[2PEG11-Palm]
- FPN EC50: 30 nM
- Potency EC50: 30 nM

B3: Compd. ID 40 (peptide)
peptide: DTHXPCIKXKKC
modifications: N-term isovaleric acid; 4 Dpa; 8 (D)Lys; 9 bhPhe; 10 Lys(Ahx_Ahx_Ahx_Palm); 11 (D)Lys; C-term NH2
- FPN EC50: 18.5 nM

B5: Compd. ID 16 (peptide)
peptide: DTHXPCIKXKKC
modifications: N-term isovaleric acid; 4 Dpa; 8 (D)Lys; 9 bhPhe; 10 Lys[Palm]; C-term NH2
- FPN EC50: 5.85 nM

B7: Compd. ID 34 (peptide)
peptide: Isovaleryl-DTH[Dip]PCI[dK][β3hF]K([PEG12-Palmitoyl])PRSK[Sarc]C-NH2
modifications: disulfide 6-16 (inferred)
- FPN EC50: 23.6 nM

B10: Compd. ID 28 (peptide)
peptide: Isovaleryl-DTH[Dip]PCI[Arg(Nitro)][β3hF]K([Ahx-Palmitoyl])[dK]C-NH2
modifications: disulfide 6-12 (inferred)
- FPN EC50: 27.1 nM

B11: Seq. No. 353 (peptide)
peptide: Isovaleryl-DTHFP[αMeC]I[dK]FK([PEG12-Palmitoyl])KC-NH2
modifications: disulfide 6-12 (inferred)
- IC50: FPN internalisation: 21.5 nM

B13: Compd. ID 13 (peptide)
peptide: Isovaleryl-DTH[Dip][Npc]CI[dK][β3hF]K([γGlu-Palmitoyl])C[dK]-NH2
modifications: disulfide 6-11 (inferred)
- FPN EC50: 16.1 nM

B14: Seq. No. 349 (peptide)
peptide: DTHXPCIKXKKC
modifications: N-term isovaleric acid; 4 Dpa; 8 (D)Lys; 9 bhPhe; 10 Lys(PEG12_Palm); 11 (D)Lys; C-term NH2
- IC50: FPN internalisation: 11.2 nM

B15: Compd. ID 2 (peptide)
peptide: DTHXPCIKXKRC
modifications: N-term isovaleric acid; 4 Dpa; 8 (D)Lys; 9 bhPhe; 10 Lys(Ahx-Palm); C-term NH2
- FPN EC50: 11.8 nM

B16: Compd. ID 19 (peptide)
peptide: Isovaleryl-DTH[Dip][Npc]CIK([γGlu-Palmitoyl])[β3hF]C[dK]-NH2
modifications: disulfide 6-10 (inferred)
- FPN EC50: 4.56 nM

B19: Compd. ID 11 (peptide)
peptide: DTHXPCIKXKC
modifications: not fully specified; N-term isovaleric acid; 4 Dpa; 8 Lys[1Peg2-1Peg2-Ahx-C18_Diacid]; 9 bhPhe; 10 (D)Lys; C-term NH2
- FPN EC50: 12.7 nM

B20: Compd. ID 20 (peptide)
peptide: DTHXPCIKXKKC
modifications: N-term isovaleric acid; 4 Dpa; 8 (D)Lys; 9 bhPhe; 10 Lys(Ahx-Palm); 11 (D)Lys; C-term NH2
- FPN EC50: 6.66 nM

B21: Compd. ID 37 (peptide)
peptide: DTHXPCIKXKKC
modifications: N-term isovaleric acid; 4 Dpa; 8 (D)Lys; 9 bhPhe; 10 Lys(2Peg11′_Ahx_Palm); 11 (D)Lys; C-term NH2
- FPN EC50: 19.6 nM

B22: Compd. ID 31 (peptide)
peptide: Isovaleryl-DTH[Dip]PCI[Pro(4Amino)][β3hF]K([Ahx-Palmitoyl])[dK]C-NH2
modifications: disulfide 6-12 (inferred)
- FPN EC50: 18 nM

B24: Compd. ID 23 (peptide)
peptide: DTHXPCIKXKRC
modifications: N-term isovaleric acid; 4 Dpa; 8 (D)Lys; 9 bhPhe; 10 Lys(Ahx-Palm); 11 Arg(Dimethyl); C-term NH2
- FPN EC50: 41.6 nM

B25: Compd. ID 26 (peptide)
peptide: DTHXPCIKXKXC
modifications: N-term isovaleric acid; 4 Dpa; 8 (D)Lys; 9 bhPhe; 10 Lys(Ahx-Palm); 11 Cav; C-term NH2
- FPN EC50: 32.2 nM

B26: Seq. No. 359 (peptide)
peptide: Isovaleryl-DTH[Dip][Npc]CI[dK][Phe(4-tBu)]K([PEG12-Palmitoyl])KC-NH2
modifications: disulfide 6-12 (inferred)
- IC50: FPN internalisation: 8.57 nM

B28: Compd. ID 29 (peptide)
peptide: Isovaleryl-DTH[Dip]PCI[Arg(Dimethyl)][β3hF]K([Ahx-Palmitoyl])[dK]C-NH2
modifications: disulfide 6-12 (inferred)
- FPN EC50: 10.6 nM

B29: Seq. No. 348 (peptide)
peptide: Isovaleryl-DTH[Dip][Npc]CI[dK][αMeF]K([PEG12-Palmitoyl])KC-NH2
modifications: disulfide 6-12 (inferred)
- IC50: FPN internalisation: 2.1 nM

B30: Compd. ID 36 (peptide)
peptide: DTHXPCIKXKKC
modifications: N-term isovaleric acid; 4 Dpa; 8 (D)Lys; 9 bhPhe; 10 Lys(2Peg11′_Sarc_Palm); 11 (D)Lys; C-term NH2
- FPN EC50: 10.9 nM

B31: Compd. ID 33 (peptide)
peptide: DTHXPCIKXKPRSKC
modifications: N-term isovaleric acid; 4 Dpa; 8 (D)Lys; 9 bhPhe; 10 Lys(2Peg11′_Palm); C-term NH2
- FPN EC50: 25.4 nM

B32: Seq. No. 356 (peptide)
peptide: Isovaleryl-DTH[Dip][Npc]CI[dK][Phe(4-COOH)]K([PEG12-Palmitoyl])KC-NH2
modifications: disulfide 6-12 (inferred)
- IC50: FPN internalisation: 0.1 nM

B34: Compd. ID 27 (peptide)
peptide: Isovaleryl-DTH[Dip]PCI[Spiral_Pip][β3hF]K([Ahx-Palmitoyl])[dK]C-NH2
modifications: disulfide 6-12 (inferred); reading uncertain
- FPN EC50: 26.3 nM

B35: Seq. No. 352 (peptide)
peptide: Isovaleryl-DTH[Dip][Npc]CI[dK]FK([PEG12-Palmitoyl])[dK]C-NH2
modifications: disulfide 6-12 (inferred)
- IC50: FPN internalisation: 6.48 nM

B36: Seq. No. 357 (peptide)
peptide: Isovaleryl-DTH[Dip][Npc]CI[dK][2Nal]K([PEG12-Palmitoyl])KC-NH2
modifications: disulfide 6-12 (inferred)
- IC50: FPN internalisation: 10.2 nM

B37: Seq. No. 350 (peptide)
peptide: DTHXXCIKFKKC
modifications: N-term isovaleric acid; 4 Dpa; 5 bhPro; 8 (D)Lys; 10 Lys(PEG12_Palm); 11 (D)Lys; C-term NH2
- IC50: FPN internalisation: 0.8 nM

B38: Compd. ID 30 (peptide)
peptide: Isovaleryl-DTH[Dip]PCI[Cit][β3hF]K([Ahx-Palmitoyl])[dK]C-NH2
modifications: disulfide 6-12 (inferred)
- FPN EC50: 26.6 nM

B40: Compd. ID 18 (peptide)
peptide: Isovaleryl-DTH[Dip]PCI[β3hF]K([Ahx-Palmitoyl])[dK]C-NH2
modifications: disulfide 6-11 (inferred)
- FPN EC50: 10.8 nM

B41: Compd. ID 38 (peptide)
peptide: DTHXPCIKXKKC
modifications: N-term isovaleric acid; 4 Dpa; 8 (D)Lys; 9 bhPhe; 10 Lys(Lys[Peg11_Palm]2); 11 (D)Lys; C-term NH2
- FPN EC50: 33 nM

B45: Compd. ID 24 (peptide)
peptide: DTHXPCIKXKXC
modifications: N-term isovaleric acid; 4 Dpa; 8 (D)Lys; 9 bhPhe; 10 Lys(Ahx-Palm); 11 Cit; C-term NH2
- FPN EC50: 45.8 nM

B47: Compd. ID 35 (peptide)
peptide: Isovaleryl-DTH[Dip]PCI[dK][β3hF]K([PEG12-Palmitoyl])P[dK]S[dK][Sarc]C[dK]-NH2
modifications: disulfide 6-16 (inferred)
- FPN EC50: 23.1 nM

Further lines, results first:

- IC50: FPN internalisation: 13.2 nM
B1: Seq. No. 351 (peptide)
peptide: Isovaleryl-DTHF[Npc]CI[dK]FK([PEG12-Palmitoyl])[dK]C-NH2
modifications: disulfide 6-12 (inferred)

- FPN EC50: 25.7 nM
B4: Compd. ID 25 (peptide)
peptide: DTHXPCIKXKPC
modifications: N-term isovaleric acid; 4 Dpa; 8 (D)Lys; 9 bhPhe; 10 Lys(Ahx-Palm); 11 Pro(4-Amino); C-term NH2

- IC50: FPN internalisation: 10 nM
B6: Seq. No. 354 (peptide)
peptide: Isovaleryl-DTHFP[αMeC]I[dK]FK([PEG12-Palmitoyl])K[αMeC]-NH2
modifications: disulfide 6-12 (inferred)

- FPN EC50: 11.5 nM
B8: Compd. ID 12 (peptide)
peptide: Isovaleryl-DTH[Dip][Npc]CI[dK][β3hF]K([Ahx-Palmitoyl])C[dK]-NH2
modifications: disulfide 6-11 (inferred)

- FPN EC50: > 3000 nM
B9: Compd. ID 15 (peptide)
peptide: Isovaleryl-DTH[Dip][Npc]CI[dK][β3hF]KC[dK]-NH2
modifications: disulfide 6-11 (inferred); not fully specified (residue 10)

- FPN EC50: 37.5 nM
B12: Compd. ID 21 (peptide)
peptide: DTHXPCIKXKXC
modifications: not fully specified; N-term isovaleric acid; 4 Dpa; 8 (D)Lys; 9 bhPhe; 10 Lys(Ahx-Palm); 11 Spiral_Pip; C-term NH2

- IC50: FPN internalisation: 23 nM
B17: Seq. No. 347 (peptide)
peptide: Isovaleryl-DTH[Dip][Npc]CI[dK][Phe(4-CN)]K([PEG12-Palmitoyl])KC-NH2
modifications: disulfide 6-12 (inferred)

- FPN EC50: 8.29 nM
B18: Compd. ID 17 (peptide)
peptide: DTHXPCIKXKKC
modifications: N-term isovaleric acid; 4 Dpa; 8 (D)Lys; 9 bhPhe; 10 Lys(Ahx-Palm); C-term NH2

- IC50: FPN internalisation: 9.64 nM
B23: Seq. No. 360 (peptide)
peptide: Isovaleryl-DTH[Dip][Npc]CI[dK]FK([PEG12-Palmitoyl])KC-NH2
modifications: disulfide 6-12 (inferred)

- IC50: FPN internalisation: 7.55 nM
B27: Seq. No. 355 (peptide)
peptide: Isovaleryl-DTHFPCI[dK]FK([PEG12-Palmitoyl])K[αMeC]-NH2
modifications: disulfide 6-12 (inferred)

- IC50: FPN internalisation: > 3000 nM
B33: Seq. No. 358 (peptide)
peptide: Isovaleryl-DTH[Dip][Npc]CI[dK][AEF]K([PEG12-Palmitoyl])KC-NH2
modifications: disulfide 6-12 (inferred)

- FPN EC50: 3.05 nM
B39: Compd. ID 10 (peptide)
peptide: DTHXPCIKXKKC
modifications: not fully specified; N-term isovaleric acid; 4 Dpa; 8 Lys[1Peg2-1Peg2-Ahx-C18_Diacid]; 9 bhPhe; 11 (D)Lys; C-term NH2

- FPN EC50: 19.3 nM
B42: Compd. ID 39 (peptide)
peptide: DTHXPCIKXKKC
modifications: N-term isovaleric acid; 4 Dpa; 8 (D)Lys; 9 bhPhe; 10 Lys(Ahx_Ahx_Palm); 11 (D)Lys; C-term NH2

- Potency EC50 (nM): > 10000 nM
B43: RI-Mini Hepcidin (peptide)
peptide: FICIPFHTD
modifications: all residues D-amino acids (DPhe-DIle-DCys-DIle-DPro-DPhe-DHis-DThr-DAsp); Hy- at the N-terminus; C-term NH2

- FPN EC50: 18.5 nM
B44: Compd. ID 41 (peptide)
peptide: DTHXPCIKXKKC
modifications: N-term isovaleric acid; 4 Dpa; 8 (D)Lys; 9 bhPhe; 10 Lys(2Peg11′_Peg11_Palm); 11 (D)Lys; C-term NH2

- FPN EC50: 30.1 nM
B46: Compd. ID 22 (peptide)
peptide: DTHXPCIKXKRC
modifications: N-term isovaleric acid; 4 Dpa; 8 (D)Lys; 9 bhPhe; 10 Lys(Ahx-Palm); 11 Arg(Nitro); C-term NH2
